# Experiment: yeast display, Sf9 membrane polyspecificity reagent, FACS + sequencing; frameworks hold sequencing errors
# Summary of the method: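 Genes from sorted yeast were amplified by colony PCR, read by MiSeq 2 × 250 sequencing and filtered on CDR length. These cells carried a synthetic nanobody library in Saccharomyces cerevisiae BJ5465 and were sorted by FACS into low and high (top ~1%) gates on anti-HA and streptavidin fluorescence. Polyreactivity is labelled according to the gate of origin.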
row,Sequence,polyreactivity (PSR sort gate)
1,QVQLVESGGGLVQAGGSLRLSCAASGSIFYHNAMGWYRQAPGKERELVAAISRSGGITSYADSVKGRFTISRDNAKNTVYLQMNSLKPEDTAVYYCAARSYYDGFYYWGQGTQVTVSS,high polyreactivity
2,QVQLVESGGGLVQAGGSLRLSCAASGRTFFSYAMGWYRQAPGKEMELVAAISGSGGSTYYADSVKGRFTISRDNAKNTVYLQMNSLKPEDTAVYYCNAYQTTRGLDYWGQGTQVTVSS,low polyreactivity
3,QVQLVESGGGLVQAGGSLRLSCAASGFTFSSYAMGGYRQAPGKERELVAAISSNGRTYYADSVKGRFTISRDNAKNTVYLQMNSQKREDTAVYYCARNIPVSYYRYGYWGQGTQVTVSS,high polyreactivity
4,QVQLVESGGGLVQAGGSLRLSCAASGFIFVPYTMGWYRQAPGKERELVATINSNGGSTYYADSVKGRFTISRDNAKNTVYLQMNSLKPEDTAVYYCAAYYRWIGGRYTPYYYWGQGTQVTVSS,high polyreactivity
5,QVQLVESGGGLVQAGGSLRLSCAASGFIFPGNARAWYRQAPGKERELVAAISNSGSRTYYADSVKGRFTISRDNAKNTVYLQMNSLKPEDTAVYYCNADVPNRGWPYDYWGQGTQVTVSS,low polyreactivity
6,QVQLVESGGGLVQAGGSLRLSCAASGRTFASYAMGWYRQAPGKERELVASIRYSGGSTHYADSVKGRFTISRDNAKNTVYLQMNSLKPEDTAVNYCNARPKFRTYNYWGQGTQVTVSS,high polyreactivity
7,QVQLQESGGGLVQAGGSLRLSCAASGNISSYYRMGWYRHAPGKEREFVATIAVGGTTNYADSVKGRFTISRDNAKNTVYLQMNSLKPEDTAVCFCAANCNQYTWFDYWGQGTQVPVSS,low polyreactivity
8,QVQLVESGGGLVQAGGSLRLSCAASGITFTPNAMGWYRPAPGKEREFVAAITYSGGSTYYADSVKGRFTISRDNAKNTVYLQMNSLKPEDTAVYYCAAVYYLLYYEAYYYWGQGTQVTVSS,low polyreactivity
9,QVQLVESGGGLVQAGGSLRLSCAASGSIFPGYAMGWYRQAPGNERELVAAISSGGNTHYADSVKGRFTISRDNAKNTVYLQMNSLKPEDTAVYYCAASYDYTYYWGQGTQVTVSS,low polyreactivity
10,QVQLVESGGGLVQAGGRLLLSCAASGGTFYRNAMGWYRLAPGKERELVASISRTGGSTYYADSVKGRFTISRDNAKNTVYLQMNSMKPEDTAVYYCNALPYSRGRWRPLSAVDYWGQGTQVTVSS,high polyreactivity
11,QVQLVESGGGLVQAGGSLRLSCAASGRIFRRYAMGWYRQAPGKERELVAAISSGGSTYYADSVKGRFTISRDNAKNTVYLQMNSLKPEDTAVYYCNAIVGAYLNYGYWGQGTQVTVSS,low polyreactivity
12,QVQLVESGGGFVQAGGSLRLSCAASGSTFSHYTMGWYSQAPGNERELLAAINYGGASTYYADSVKGRFTISRDNAKNTVYLQMNSQKPEDTAVYYCAAANRPSEQDNYWGQGTQVTVSS,low polyreactivity
13,QVQLVESGGGLVQAGGSLRLSCAASGRTYRRNAMGWYRQAPGKERELVAAIRSDGSTYYADSVKGRFTISRDNAKNTVYLQMNRLKPEDTAVYYCNAVYVSSFTCHDYWGQGTQVTVSS,low polyreactivity
14,QDQLVESGGGLVQAGGSLRLSCAASGSTFKVYAMGWYRQAPGKERELVAAISASDCSTYYADSVKGRFTISRDNAKNTVYLQMNILKAEDTAVYYCNAAYPEWYAYDYWGQGTQVTVSS,low polyreactivity
15,QVQLVESGGGLVQAGGSLRLSCAASAFIYSSYAMGWYRQAPGKEMELVAAISYSGGSTYYADSVKGRFTISRDTAKNTVYLQMNRLKPEDTAVYYCAAELQIKIGFYTGEYEYYYWGQGTQVTVSS,high polyreactivity
16,QVQLVESGGGLVQAGGSLRLSCAASGSTFRIYAMGWYRQQHGKESEFVAAITGGGTHYADSVKGRFTISRDNAKNTVYLQMNRLKPEDTAVYFCAAGYFIRTLSRYRYDYWGQGTQVTVSS,high polyreactivity
17,QVQLVESGGGLVQAGGSLRLSCAASGFTLLPYAMGWYRQAPGKERELVAAISRRGVSTYYADSVKGRFTISRDNAKNTVYLQMNSLIPEDTSVYYWASRYFTGYGLRTQFYFWGQGTQVTVSS,high polyreactivity
18,QVQLVESGGGLVQAGGSLRLSCAASGRIFVVNAMGWYRQAPGKESELVAAITRRGGSTYADSVKGRFTISRDNAKNTLYIQMTSLKPEDTAVYYCNAESDFGIFRYKYDYWGQCTQVTVSS,high polyreactivity
19,QDQLVESGGGLVQAGGSHRLSCAASGFIIGYYAMGWYRQAPGKEMELVASIRRGGSTYYADSVKGRFTISRDNAKNTVYLQMNSLKPEDTAVYYCAAQRSVVGWWSRTSLYGDSDYWGLGTQVTVSS,high polyreactivity
20,QVQLVESGGGLVQAGGSLRLICAASGRTFRVYAMGWYRQAPGKERELVASISRRGASTYYADSVKGRFTISRDIAKNTVYLQMNSLKPEDTAVYYCAADRRYYSVSPNTEFEYWGQGTQETVSS,high polyreactivity
21,QVQLVESGGGLVQAGGSLRLSFAASGFTLVGYTMGWYRQAPGKERELVAAINWSGGRTYYADSVKGRFTISRDNAKNTVYLQMNSLKPVDTAVYYCAADSLRYKKYYYWGQGTQVTVSS,high polyreactivity
22,QVQLVESGGGLVQAGGSLRLSCAASGRTSNIYAMGWYRQAPGKERELVAAIRTGGSTNYADSVKGRFTISRDNAKNSVYLQMNSLKPEDTAVYYCAATSRRSRPAEEYWGQGTQVTVSS,high polyreactivity
23,QVQLVESGGGLVQAGGSLRLSCAASGFNFDANPLGWYRQAAGKERELVAAISWSGGSTYYADSVKGRFTISRDYANNSVYLQMNTLKPEDTAVYYCAADILGYSYEYWGQGTQVTVSS,high polyreactivity
24,QVQLVESGGGLVQAGGSLRLSCAASGYIFGYYVMGWYRQARGKERELVAAISDSDITYYADSVKGRFTISRDNAKNTVSLQMNSLKPEDTAVYYCNADFGYWWDGRRYDYWGQGTQVTVSS,low polyreactivity
25,QVHLVESGGGLVQAGGSLRLSCAASGSTKGNNAMGWYRQATGKERELVAAISTRGGSTYYADSVKGRFTISRDNAKNTVYLQMNSLKPEDTAVYYCAADFGQYHGAVRKMDYWGQGTQVTVSS,low polyreactivity
26,QVQLVESGGGLVQAGGSLRLSCAASGFTFVSYAMGWYRQAPGKERELVAAISRSGGTTYYADSVKGRFTISRDNAKNTGYFQMNSLKPEDTAVYYCAADFYVFYTRYYYWGQGTQVTVSS,low polyreactivity
27,QVQLVESGGGLVQAGGSLRLSCAASGSIFEDNVMGWYRQAPGKEREFVADITAIGGSTYYADSVKGRFTISRDNAKNTVYLQMNSLKPEDTAVDYCAAGFYVDYQLYEYWGQGTQVTVSS,high polyreactivity
28,QVQLVESGGGLVQAGGSLRLSCAASGIIFRAYAMGWYRQAPGKERELVAAITSRGGSTYYADSVKGRFTISLDNAKNTVYLQKNSLKPEDTAVYYCAADFTIPYWDANFDYWGQGTQVTVSS,low polyreactivity
29,QVQLVESGGGLVQAGGSLRLSCAASGSIFGYYTMGWYRQAPGKEREFVAAISWSGGSTYYADSVKGRFTISRDNAKNTVYLQMTSLKPEDTAVYYCNADVYWEYDYWGQGTQVTVSS,low polyreactivity
30,QVQLVESGGGLVQAGGSLRLSSAASGFIFTWYAMGWYIQAPGKERELVAAISSSGGRTYYADSVKGRFTISRDNAKNTVYLQMNSLKPEDSAVYYCTAVKFIRQHSEYDYWGQGTLVTVSS,high polyreactivity

# — the nanobody polyreactivity screen of Harvey et al. (2022)
